From the DeepSol protein solubility set

Assay: soluble on expression in E. coli; label from the status in PepcDB or PDB records

| Sequence | soluble on expression in E. coli |
| --- | --- |
| MFFVLSPAKNLNEKDPAPVSEFTQPDLLAESDILMQQLRELAPQQIAELMHVSDKIALLNAQRNAEWNTPFTPENAKQAVFMFNGDVYEGMDANTLDIGQIRYLQNHVRLLSGLYGLLRPLDLIQPYRLEMGTAFANLRGKNLYEFWGDIITNLLNDTLAQAGSNTLVNLASQEYFKSVNTKKLRARLITPIFKDEKNGKYKIISFYAKRARGLMVRYAAEHHITDPEMLKNFNYEGYAFNDAASNESEWVFMRSEQIK | not soluble |
| MFIREEEQMKRMIITIGRQSGSSGRKVGELLAERLSLPLYGKAELQKIAEGTDDYEEVQAFYEEEPVNSLLYAIAMSQFEQEVGRIPFQRIRELASKESCIIIGRCAGHIFREDPEAVRVFIHADPKIRVQRIMEREGLSETKAKKFLEDTDSRRASFHKYYTKQEWGLAQDYELCLDSGVLGIEGTVEVLTEYLRFRGFLGNE | not soluble |
| MFKLFTARQHDKIWDFDGGIHPPEMKLQSSTVPMRIAPLPDQLIIPLQQHLGPEGELRVRAGEQVLKGQPLTVGRGRTVPVHAPTSGMITAIAPHTTAHPSGLAELCVHITPDGEDRWREQQPWADYRQRDKMALLDRIHQAGIAGLGGAGFPTASKLQGGLNGIITLIINAAECEPYITADDRLMQEHADEVITGIHILRHLLQPQQVLIGIEDNKPEAIAALQRALRGQDDIHLRVVPTKYPSGGAKQLTKILTGKEVPFGKHSSSIGVLMQNVGTVVAIKRAVIDDEPLIERVVTLTGDALSSPGNFWARIGTPVLYLLKLAGFKPQNPPMVIMGGPLMGFTLPSLDVPIVKISNCILAPAETEMGLSEPEQSCIRCGLCVDACPAGLLPQQLYWFSRGEEHEKARNHNLFDCIECGACAYVCPSNIPLVQYYRQEKAEIRALDQESARAAEAKARFEAKQARLAREKLARELRHKQAAVKLTDADQQTVDAAVSRLTRQSDGSESVINIPAGQMPDNSAVIAAREARKAQARARQAEKQQARSTEETTDVVDPRQAAVAAAIARVKAKKAVQAQHVTTDVAEAGSEAMAEDPRKAAVAAAIARVKAKKAAQAINPD | not soluble |
| MFLNTNEILDYSALKYMPNLKSLTVANAKIKDPSFFANLKQLNHLALRGNEFSDVTPLVKMDHLDSLDLSNNKITNVAPLIEMKNVKSLYLSGNQIEDVTALAKMEQLDYLNLANNKITNVAPLSALKNVTYLTLAGNQIEDIKPLYSLPLTDLVLTRNKVKDLSGIEQMKQLEELWIGKNEIKDVTPLSKMTQLKQLHLPNNELKDITPLSSLVNLQKLDLEANYISDLTPASNLKKLVFLSFVANEIRDVRPVIELSKTAYINVQNQKVFLEETEVNKEVKVPIYEKDGKISTKIRLKGEGGTYSNDAVKWSTPGEKVYEFGVKDPFADTGIFFTGSVIQNVVESKADNTSKEDNTSKEDAKVEVVEFKDVPKGHWSEEAIHYLAKENIFKGYGNGQFGFGDSITRGQVASLVQRYLKLENKVEQKERFTDTKGHMFEQDIATVAQAGIMQGDGTGEFRPDGVLTRYEMSVVLYKVFQLKEDGNNKVNFKDVPTGHWAEGYVKALVDNNISKGDGKERFLGDDFVTREQYAQFLYNAITK | not soluble |
| MFLTRSEYDRGVSTFSPEGRLFQVEYSLEAIKLGSTAIGIATKEGVVLGVEKRATSPLLESDSIEKIVEIDRHIGCAMSGLTADARSMIEHARTAAVTHNLYYDEDINVESLTQSVCDLALRFGEGASGEERLMSRPFGVALLIAGHDADDGYQLFHAEPSGTFYRYNAKAIGSGSEGAQAELLNEWHSSLTLKEAELLVLKILKQVMEEKLDENNAQLSCITKQDGFKIYDNEKTAELIKELKEKEAAESPEEADVEMS | soluble |
| MFLVDSHCHLDGLDYESLHKDVDDVLAKAAARDVKFCLAVATTLPGYLHMRDLVGERDNVVFSCGVHPLNQNDPYDVEDLRRLAAEEGVVALGETGLDYYYTPETKVRQQESFIHHIQIGRELNKPVIVHTRDARADTLAILREEKVTDCGGVLHCFTEDRETAGKLLDLGFYISFSGIVTFRNAEQLRDAARYVPLDRLLVETDSPYLAPVPHRGKENQPAMVRDVAEYMAVLKGVAVEELAQVTTDNFARLFHIDASRLQSIR | soluble |
| MFNKILVVCVGNVCRSPTAERLLKRFHPSLTVASAGLGALVGKGADPAAASVASAHDLSLENHCARQISARLCREYDLILTMEKRHIAALCDIAPEMRGKVMLFGHWDSEREIPDPYRKSRDAFEAVYTLLERSARQWAQALNAEQGKP | not soluble |
| MFPRKELLKDGSLLLIREASIWDARRIVEYLKEVTSETDFLITRPDEVYDVSTERNYIRMYRSNPGKLMIVGEINREIVSLLTFTGFGRKRTKHVGEIGISVKKRYWNIGIGTRMITSAIEWARRNGFIRIQLEVLKSNERAISLYRKLGFELEGIKRKAVRRDDGSFEDVLVMALLLD | soluble |
